Measurements from publication PMC3150472 (Structure (London, England : 1993), 2011).
*1 amine or outer side, *2 acyl side, *3 side chain or, on linkers, in order; H or OH if unused. Where no end group is shown, it is not given here. [ ]: non-standard residue; d: D form. CEL = Nε-carboxy-ethyl-lysine, CC(NCCCC[C@H](N[*:1])C(=O)[*:2])C(=O)[*:3]; CML = Nε-carboxy-methyl-lysine, O=C([C@H](CCCCNCC(=O)[*:3])N[*:1])[*:2]

Tests used:
RAGE = conditions: free amino acid, not embedded in a peptide; ref Xie et al., 2008; cited from earlier work
V domain of RAGE = V domain of RAGE (Homo sapiens, UniProt Q15109); assay: Tryptophan fluorescence titration, wild type V domain; conditions: single site binding isotherm, 25 °C, pH 6.5, 100 mM NaCl
[1] = molecular target: K52A, R98A V domain of RAGE (human, UniProt Q15109 24-125, K52A | R98A); assay: other fluorescence titration
Sequence of K52A, R98A V domain of RAGE (Q15109 24-125 K52A/R98A): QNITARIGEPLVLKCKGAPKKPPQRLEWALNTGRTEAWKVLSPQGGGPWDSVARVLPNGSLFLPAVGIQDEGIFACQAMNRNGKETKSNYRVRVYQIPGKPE

K52A V domain of RAGE = K52A V domain of RAGE (human, UniProt Q15109 24-125, K52A); assay: other fluorescence titration
Sequence of K52A V domain of RAGE (Q15109 24-125 K52A): as the sequence (Q15109 24-125 K52A/R98A) above, with A75R counted along it

R98A V domain of RAGE = R98A V domain of RAGE (human, UniProt Q15109 24-125, R98A); assay: other fluorescence titration
Sequence of R98A V domain of RAGE (Q15109 24-125 R98A): as the sequence (Q15109 24-125 K52A/R98A) above, with A29K counted along it

[2] = molecular target: V domain of RAGE (wild type) (human, UniProt Q15109 24-125); assay: other fluorescence titration
NMR gradient diffusion = molecular target: the molecule itself; assay: NMR gradient diffusion

CC(NCCCC[C@H](N)C(=O)O)C(=O)O (stereo partly shown) [CEL, Nε-carboxy-ethyl-lysine]
binding to RAGE (RAGE): do not bind

N[C@@H](CCCCNCC(=O)O)C(=O)O [CML, Nε-carboxy-methyl-lysine]
binding to RAGE (RAGE): do not bind

CC(NCCCC[C@H](NC(=O)[C@H](Cc1ccccc1)NC(=O)[C@H](CCC(=O)O)NC(=O)[C@@H](N)CC(=O)O)C(=O)N[C@@H](C)C(=O)N[C@@H](CC(=O)O)C(=O)N[C@@H](CCC(=O)O)C(=O)O)C(=O)O (stereo partly shown) [DEF(CEL)ADE]
Kd (V domain of RAGE): 104 ± 5 µM

CC(C)C[C@H](NC(=O)[C@H](CC(=O)O)NC(=O)[C@H](CCCCNC(C)C(=O)O)NC(=O)[C@@H](N)Cc1ccccc1)C(=O)NCC(=O)N[C@@H](CCC(=O)O)C(=O)N[C@@H](CCC(=O)O)C(=O)O (stereo partly shown) [F(CEL)DLGEE]
Kd (V domain of RAGE): 93 ± 6 µM

DEF[CEL]ADE [DEF(CEL)ADE]
Kd [1]: 912 ± 42 µM | Kd (K52A V domain of RAGE): 560 ± 32 µM | Kd (R98A V domain of RAGE): 685 ± 26 µM

F[CML]DLGEE [F(CML)DLGEE]
Kd [2]: 87 ± 5 µM

DEF[CML]ADE [DEF(CML)ADE]
Kd [2]: 97 ± 3 µM

B1: VC1 domain of RAGE (wild type) (domain or fragment, human, UniProt Q15109 23-243, looked up)
chain: AQNITARIGEPLVLKCKGAPKKPPQRLEWKLNTGRTEAWKVLSPQGGGPWDSVARVLPNGSLFLPAVGIQDEGIFRCQAMNRNGKETKSNYRVRVYQIPGKPEIVDSASELTAGVPNKVGTCVSEGSYPAGTLSWHLDGKPLVPNEKGVSVKEQTRRHPETGLFTLQSELMVTPARGGDPRPTFSCSFSPGLPRHRALRTAPIQPRVWEPVPLEEVQLVVE
binding result (NMR gradient diffusion): binds
